Consider 2 substances from patent publication US20080096223A1.

The target of assay [1] is VWF in human whole blood of healthy volunteers (human) (UniProt P04275). The assay is described as follows: cell-based or functional assay.
The target in assay [2] is reference Nanobody (in accordance with WO 04/062551). The assay is described as follows: competition ELISA: soluble ristocetin-preincubated wt-VWF at equal molar concentration against 62.5 nM biotinylated reference Nanobody on immobilized VWF. (In an ELISA, binding on a coated surface is turned into a signal by an enzyme label.)

Take “GpIbα on platelets (from UniProt P07359 17-652) (receptor)”: the platelet coverage in assay [1] is 67.8%. As to “wt-VWF preincubated with 1 mg/ml ristocetin (ristocetin-activated VWF) (from UniProt P04275 764-2813)”, the percent reduction of binding in assay [2] was 90%.
